Measurements: the supplement of paper PMC6757056
± gives the standard deviation of the averaged measurements.

B1: library; a variant is named by its letters at N, in order (parent)
chain: GCUGUCACCGGUGUAUUACCCUAGUGGUCGACCGGUCUGAUGAGUCUNNNNNNAGACGAAACAGC

How the values were obtained:
[1] = variants of: B1; assay: FACS-Seq fitted mean relative fluorescence mCherry/BFP without ligand (log10 relative fluorescence); ligand: hypoxanthine (xanthine aptamer); higher = higher reporter protein expression; conditions: HEK293T, ligand present: no
In short: (§1)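 Fluorescence is reported as a normalized fitted mean of sorted-bin read counts. Lentivirally transduced HEK293T libraries (mCherry ribozyme-switch reporter, EF1α-BFP marker) were enriched, treated with or without ligand for 48 h, and sorted into 6 mCherry/BFP bins for MiSeq sequencing of PCR-amplified genomic DNA. The normal fit was on log10(mCherry/BFP), scaled to five spiked-in control ribozymes.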

[2] = variants of: B1; assay: normalized RNA/DNA level with ligand (relative to sTRSVctl = 100) (log10 (% of sTRSVctl)); ligand: hypoxanthine (xanthine aptamer); higher = less ribozyme self-cleavage, higher mRNA level; conditions: ligand concentration (+) RNA-Seq: 5 mM, HEK293T, reporter: mCherry (pCS4076), ligand present: yes
In short: (§2)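 For each 6-well well, 4 µg of library plasmid encoding mCherry-linked ribozyme switches, or eGFP-linked ones in some ligand experiments, was transfected into HEK293T. Any ligand was added 1 h before transfection, and RNA was extracted with EDTA 72 h after it, then reverse-transcribed, amplified, barcoded and sequenced. RNA level was obtained by dividing RNA reads by DNA reads, normalizing to a spiked-in non-cleaving sequence or to the top sequences, then scaling and log-transforming. The top set was 25 sequences, scaling was ×100 with log10, and ≥100 DNA reads were required.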

[3] = variants of: B1; assay: normalized RNA/DNA level without ligand (relative to sTRSVctl = 100) (log10 (% of sTRSVctl)); ligand: hypoxanthine (xanthine aptamer); higher = less ribozyme self-cleavage, higher mRNA level; conditions: HEK293T, reporter: mCherry (pCS4076), ligand present: no
In short: as §2

[4] = variants of: B1; assay: FACS-Seq fitted mean relative fluorescence mCherry/BFP with ligand (log10 relative fluorescence); ligand: hypoxanthine (xanthine aptamer); ligand concentration (+) FACS-Seq: 5 mM; higher = higher reporter protein expression; conditions: HEK293T, ligand present: yes
In short: as §1

Variant | FACS-Seq fitted mean (log10) [1] | normalized RNA/DNA level with ligand (log10) [2] | normalized RNA/DNA level without ligand (log10) [3] | FACS-Seq fitted mean (log10) [4]
GGCGCA | 0.59 ± 0.026 | 1.977 ± 0.0052 | 1.893 ± 0.0039 | 0.6023 ± 0.0039
GGGAAU | 0.489 ± 0.043 | 1.93 ± 0.045 | 1.64 ± 0.021 | 0.654 ± 0.069
GGGAAA | 0.227 ± 0.0031 | 1.867 ± 0.0029 | 1.57 ± 0.028 | 0.428 ± 0.03
GGGAAG | -0.183 ± 0.0054 | 1.64 ± 0.023 | 1.18 ± 0.014 | 0.325 ± 0.0034
AGCUUG | 0.486 ± 0.018 | 1.94 ± 0.036 | 1.59 ± 0.018 | 0.64 ± 0.031
AGCUUC | -0.1877 ± 0.00023 | 2.019 ± 0.0075 | 1.927 ± 0.016 | -0.0634 ± 0.021
GGGGCU | -0.598 ± 0.026 | 1.99 ± 0.074 | 2.008 ± 0.015 | -0.677 ± 0.077
GGGGCC | -0.395 ± 0.028 | 1.97 ± 0.036 | 1.89 ± 0.077 | 0.0142 ± 0.039
AGCCGG | -0.0509 ± 0.035 | 1.91 ± 0.012 | 1.67 ± 0.02 | 0.305 ± 0.055
AGCCGA | 0.399 ± 0.018 | 1.925 ± 0.0069 | 1.68 ± 0.027 | 0.547 ± 0.036
AGGGAG | -0.123 ± 0.041 | 1.78 ± 0.086 | 1.4 ± 0.042 | 0.0991 ± 0.022
AGGGAC | 0.0327 ± 0.041 | 1.916 ± 0.017 | 1.7 ± 0.018 | -0.137 ± 0.14
AGGGAA | 0.524 ± 0.1 | 1.86 ± 0.025 | 1.68 ± 0.045 | 0.684 ± 0.034
CGGGCU | 0.773 ± 0.061 | 1.946 ± 0.019 | 1.954 ± 0.0037 | 0.578 ± 0.023
AGCGAG | 0.352 ± 0.055 | 1.8 ± 0.031 | 1.36 ± 0.062 | 0.443 ± 0.043
AGCGAA | 0.534 ± 0.068 | 1.924 ± 0.017 | 1.6852 ± 0.00025 | 0.62 ± 0.014
AGCGAC | -0.228 ± 0.049 | 1.93 ± 0.043 | 1.787 ± 0.00037 | 0.298 ± 0.021
AGGCCG | 0.147 ± 0.0087 | 1.89 ± 0.018 | 1.67 ± 0.054 | 0.366 ± 0.045
AGGCCU | 0.421 ± 0.032 | 1.94 ± 0.022 | 1.97 ± 0.069 | 0.554 ± 0.071
AGGCCA | 0.668 ± 0.014 | 1.96 ± 0.016 | 1.86 ± 0.023 | 0.607 ± 0.064
GGGAGC | -0.04041 ± 0.0004 | 1.74 ± 0.068 | 1.16 ± 0.014 | 0.622 ± 0.026
GGGAGU | 0.36 ± 0.0084 | 1.92 ± 0.047 | 1.63 ± 0.039 | 0.629 ± 0.011
GGGAGA | 0.0269 ± 0.057 | 1.84 ± 0.02 | 1.429 ± 0.014 | 0.516 ± 0.024
GGGAGG | 0.0166 ± 0.058 | 1.76 ± 0.021 | 1.3 ± 0.03 | 0.374 ± 0.033

Variant | FACS-Seq fitted mean (log10) [1] | normalized RNA/DNA level with ligand (log10) [2] | normalized RNA/DNA level without ligand (log10) [3] | FACS-Seq fitted mean (log10) [4]
UGCCAG | 0.421 ± 0.0089 | 1.9 ± 0.034 | 1.727 ± 0.0076 | 0.288 ± 0.093
UGCCAC | 0.327 ± 0.019 | 1.94 ± 0.031 | 1.89 ± 0.02 | 0.42 ± 0.01
CGGACA | 0.518 ± 0.098 | 1.9 ± 0.068 | 1.66 ± 0.037 | 0.612 ± 0.016
UGCGCG | 0.142 ± 0.0059 | 1.94 ± 0.032 | 1.75 ± 0.035 | 0.383 ± 0.012
GGGCGG | 0.372 ± 0.034 | 1.9325 ± 0.00079 | 1.577 ± 0.0083 | 0.586 ± 0.017
CGCGGG | 0.374 ± 0.021 | 1.84 ± 0.026 | 1.36 ± 0.036 | 0.72 ± 0.051
GGCGAU | 0.679 ± 0.071 | 1.97 ± 0.062 | 1.9 ± 0.063 | 0.587 ± 0.0063
AGGACG | 0.233 ± 0.013 | 1.784 ± 0.01 | 1.37 ± 0.036 | 0.567 ± 0.0099
AGGACU | 0.894 ± 0.099 | 1.94 ± 0.058 | 1.802 ± 0.0094 | 0.734 ± 0.031
AGGACC | 0.421 ± 0.0047 | 1.94 ± 0.042 | 1.88 ± 0.028 | 0.565 ± 0.034
AGGCUG | 0.279 ± 0.011 | 2 ± 0.04 | 1.78 ± 0.045 | 0.333 ± 0.014
AGGCUA | 0.509 ± 0.0085 | 1.93 ± 0.031 | 1.811 ± 0.0095 | 0.617 ± 0.057
GGGACG | 0.352 ± 0.016 | 1.894 ± 0.014 | 1.51 ± 0.021 | 0.708 ± 0.031
UGCAGA | 0.169 ± 0.0021 | 1.84 ± 0.032 | 1.43 ± 0.021 | 0.4015 ± 0.00097
UGCAGU | -0.0358 ± 0.0051 | 1.906 ± 0.016 | 1.434 ± 0.0054 | 0.345 ± 0.15
UGCAGG | 0.297 ± 0.033 | 1.8726 ± 0.0012 | 1.39 ± 0.073 | 0.49 ± 0.056
CGGAAU | 0.0719 ± 0.0065 | 1.81 ± 0.052 | 1.42 ± 0.016 | 0.548 ± 0.059
CGGAAG | 0.266 ± 0.007 | 1.905 ± 0.011 | 1.734 ± 0.0046 | 0.361 ± 0.062
CGGAAA | 0.32 ± 0.016 | 1.87 ± 0.025 | 1.43 ± 0.051 | 0.587 ± 0.016
UGCGUA | 0.287 ± 0.015 | 1.92 ± 0.05 | 1.86 ± 0.032 | 0.413 ± 0.031
UGCCGG | -0.14 ± 0.0069 | 1.938 ± 0.0072 | 1.71 ± 0.068 | -0.119 ± 0.14
UGCUGA | 0.117 ± 0.0063 | 1.92 ± 0.013 | 1.68 ± 0.021 | 0.0171 ± 0.11
AGGCAU | -0.0543 ± 0.062 | 1.92 ± 0.067 | 1.8 ± 0.047 | 0.027 ± 0.034
AGGCAG | 0.337 ± 0.023 | 1.82 ± 0.037 | 1.45 ± 0.0028 | 0.534 ± 0.015

Variant | FACS-Seq fitted mean (log10) [1] | normalized RNA/DNA level with ligand (log10) [2] | normalized RNA/DNA level without ligand (log10) [3] | FACS-Seq fitted mean (log10) [4]
AGGAUG | 0.132 ± 0.024 | 1.79 ± 0.042 | 1.25 ± 0.045 | 0.526 ± 0.06
AGGAUA | -0.536 ± 0.015 | 1.9 ± 0.027 | 1.677 ± 0.0074 | -0.0798 ± 0.042
CGGAGU | 0.289 ± 0.057 | 1.91 ± 0.024 | 1.78 ± 0.074 | 0.556 ± 0.041
CGGAGG | 0.0652 ± 0.064 | 1.78 ± 0.12 | 1.28 ± 0.021 | 0.528 ± 0.0064
GGGCCA | 0.693 ± 0.015 | 1.9809 ± 0.00094 | 1.99 ± 0.032 | 0.808 ± 0.082
GGGCCG | -0.0164 ± 0.068 | 1.98 ± 0.05 | 1.923 ± 0.0046 | 0.175 ± 0.031
CGGAUU | -0.13 ± 0.0099 | 1.94 ± 0.045 | 1.744 ± 0.0072 | 0.244 ± 0.014
AGCACG | 0.385 ± 0.023 | 1.87 ± 0.055 | 1.44 ± 0.085 | 0.609 ± 0.062
UGCCUG | 0.608 ± 0.0066 | 1.91 ± 0.1 | 1.73 ± 0.042 | 0.712 ± 0.07
UGCCUA | 0.664 ± 0.022 | 1.94 ± 0.039 | 1.929 ± 0.0053 | 0.57 ± 0.049
UGCCUC | 0.735 ± 0.008 | 2 ± 0.064 | 2.01 ± 0.023 | 0.659 ± 0.051
GGCGUG | 0.107 ± 0.021 | 1.91 ± 0.088 | 1.52 ± 0.022 | 0.291 ± 0.076
AGGGGC | 0.795 ± 0.067 | 1.95 ± 0.047 | 1.86 ± 0.079 | 0.741 ± 0.049
AGGGGG | 0.363 ± 0.12 | 1.88 ± 0.034 | 1.53 ± 0.07 | 0.631 ± 0.028
AGCAGG | 0.0745 ± 0.0069 | 1.83 ± 0.055 | 1.396 ± 0.0059 | 0.533 ± 0.079
AGCAGC | 0.426 ± 0.013 | 1.99 ± 0.058 | 1.74 ± 0.049 | 0.54 ± 0.14
AGCAGA | 0.386 ± 0.043 | 1.879 ± 0.01 | 1.41 ± 0.027 | 0.623 ± 0.019
UGCUCA | 0.419 ± 0.016 | 1.94 ± 0.0052 | 1.98 ± 0.061 | 0.498 ± 0.057
AGCCAU | -0.282 ± 0.012 | 1.92 ± 0.052 | 1.78 ± 0.027 | 0.15 ± 0.033
AGCCAG | 0.512 ± 0.025 | 1.89 ± 0.024 | 1.591 ± 0.007 | 0.71 ± 0.041
AGCCAA | 0.57 ± 0.1 | 1.888 ± 0.017 | 1.8 ± 0.028 | 0.566 ± 0.067
GGCAUG | 0.213 ± 0.11 | 1.88 ± 0.058 | 1.45 ± 0.042 | 0.621 ± 0.098
UGCCCA | 0.234 ± 0.013 | 1.944 ± 0.002 | 1.92 ± 0.043 | -0.0574 ± 0.058
